From article PMC9482650, “Quantitative fragmentomics allow affinity mapping of interactomes” (Nature Communications, 2022)

T1: APBA1_2, Q02410
T1 sequence (Q02410 742-832, limits assumed, looked up): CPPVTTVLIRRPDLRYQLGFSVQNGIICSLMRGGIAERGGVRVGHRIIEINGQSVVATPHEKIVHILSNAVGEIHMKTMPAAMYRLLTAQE

T2: APBA2_1, Q99767
T2 sequence (Q99767 563-664, limits assumed, looked up): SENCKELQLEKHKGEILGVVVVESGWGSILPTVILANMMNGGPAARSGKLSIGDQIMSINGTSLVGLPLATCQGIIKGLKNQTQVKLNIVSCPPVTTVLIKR

T3: ARHGEF11, O15085
T3 sequence (O15085 42-136, limits assumed, looked up): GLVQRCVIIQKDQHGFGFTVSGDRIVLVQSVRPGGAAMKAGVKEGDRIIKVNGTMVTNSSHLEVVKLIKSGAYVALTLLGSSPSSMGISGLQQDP

T4: DVL3, Q92997
T4 sequence (Q92997 244-331, limits assumed, looked up): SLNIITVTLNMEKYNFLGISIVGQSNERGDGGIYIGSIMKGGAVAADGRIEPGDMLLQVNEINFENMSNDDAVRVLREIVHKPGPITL

T5: GRIP1_7, Q9Y3R0
T5 sequence (Q9Y3R0 999-1096, limits assumed, looked up): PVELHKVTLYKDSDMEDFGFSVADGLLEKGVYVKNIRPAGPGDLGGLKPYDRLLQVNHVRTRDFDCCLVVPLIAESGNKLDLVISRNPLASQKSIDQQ

T6: HTRA4, P83105
T6 sequence (P83105 378-476, limits assumed, looked up): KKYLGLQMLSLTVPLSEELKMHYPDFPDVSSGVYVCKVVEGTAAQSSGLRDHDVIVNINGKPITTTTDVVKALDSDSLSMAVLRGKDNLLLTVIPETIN

T7: LNX2_2, Q8N448
T7 sequence (Q8N448 334-432, limits assumed, looked up): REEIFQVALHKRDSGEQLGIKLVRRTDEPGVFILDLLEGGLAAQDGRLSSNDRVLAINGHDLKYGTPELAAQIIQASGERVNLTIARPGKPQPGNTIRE

T8: MPDZ_12, O75970
T8 sequence (O75970 1857-1958, limits assumed, looked up): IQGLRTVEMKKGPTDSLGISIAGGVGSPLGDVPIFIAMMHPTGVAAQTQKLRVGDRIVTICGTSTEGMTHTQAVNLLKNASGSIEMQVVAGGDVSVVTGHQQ

T9: MPP2, Q14168
T9 sequence (Q14168 180-250, limits assumed, looked up): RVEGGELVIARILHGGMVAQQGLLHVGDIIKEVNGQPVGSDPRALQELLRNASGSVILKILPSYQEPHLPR

T10: MPP7, Q5T2T1
T10 sequence (Q5T2T1 134-230, limits assumed, looked up): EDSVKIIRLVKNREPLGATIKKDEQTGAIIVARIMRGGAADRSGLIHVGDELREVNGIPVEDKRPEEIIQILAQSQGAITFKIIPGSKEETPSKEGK

T11: NHERF3_3, Q5T2W1
T11 sequence (Q5T2W1 238-333, limits assumed, looked up): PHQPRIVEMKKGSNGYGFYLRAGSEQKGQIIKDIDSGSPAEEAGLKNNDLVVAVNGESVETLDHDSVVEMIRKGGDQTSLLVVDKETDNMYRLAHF

T12: PDZD7_3, Q9H5P4
T12 sequence (Q9H5P4 857-944, limits assumed, looked up): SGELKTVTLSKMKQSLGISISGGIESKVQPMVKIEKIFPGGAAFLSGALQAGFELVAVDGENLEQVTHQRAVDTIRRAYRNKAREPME

T13: SNTG1, Q9NSN8
T13 sequence (Q9NSN8 52-150, limits assumed, looked up): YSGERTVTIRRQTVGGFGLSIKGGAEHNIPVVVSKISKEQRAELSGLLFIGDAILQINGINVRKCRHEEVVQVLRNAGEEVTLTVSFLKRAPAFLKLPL

T14: TIAM2, Q8IVF5
T14 sequence (Q8IVF5 885-986, limits assumed, looked up): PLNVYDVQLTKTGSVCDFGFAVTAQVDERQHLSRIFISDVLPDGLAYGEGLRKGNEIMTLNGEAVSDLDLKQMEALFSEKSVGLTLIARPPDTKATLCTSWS

B1: MYOZ1, Q9NP98 (peptide)
chain: IPLDGETEEL
B2: EPHB3, P54753 (peptide)
chain: QMNQTLPVQV
B3: TANC1, Q9C0D5 (peptide)
chain: PKRSFIESNV

Biological target: T1, APBA1_2, Q02410
Assay: holdup assay
Set-up: key: below the threshold = too weak to quantify, mostly under pKd 3.1 to 4
Conditions: plain residues with an end cap or a label only (N-terminal biotin on a linker: ado-ado)

Row | Binder | pKd
1 | B1 | below the threshold
2 | B2 | 4.8
3 | B3 | 3.68

Biological target: T2, APBA2_1, Q99767
Assay: holdup assay
Set-up: key: below the threshold = too weak to quantify, mostly under pKd 3.1 to 4
Conditions: plain residues with an end cap or a label only (N-terminal biotin on a linker: ado-ado)

Row | Binder | pKd
4 | B1 | below the threshold
5 | B2 | below the threshold
6 | B3 | below the threshold

Biological target: T3, ARHGEF11, O15085
Assay: holdup assay
Set-up: key: below the threshold = too weak to quantify, mostly under pKd 3.1 to 4
Conditions: plain residues with an end cap or a label only (N-terminal biotin on a linker: ado-ado)

Row | Binder | pKd
7 | B1 | 3.82
8 | B2 | 4.36
9 | B3 | 3.55

Biological target: ARHGEF12, Q9NZN5-2
Sequence (Q9NZN5 other isoform, or with tags, fused parts or gaps): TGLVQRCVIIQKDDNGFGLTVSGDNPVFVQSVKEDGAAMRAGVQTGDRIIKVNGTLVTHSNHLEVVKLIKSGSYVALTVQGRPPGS
Assay: holdup assay
Set-up: key: below the threshold = too weak to quantify, mostly under pKd 3.1 to 4
Conditions: plain residues with an end cap or a label only (N-terminal biotin on a linker: ado-ado)

Row | Binder | pKd
10 | B1 | below the threshold
11 | B2 | below the threshold
12 | B3 | 3.47

Biological target: DLG5_1, Q8TDM6
Sequence (Q8TDM6 617-713): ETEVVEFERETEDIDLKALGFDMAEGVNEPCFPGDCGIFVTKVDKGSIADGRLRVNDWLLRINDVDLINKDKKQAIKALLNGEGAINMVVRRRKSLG
Assay: holdup assay
Set-up: key: below the threshold = too weak to quantify, mostly under pKd 3.1 to 4
Conditions: plain residues with an end cap or a label only (N-terminal biotin on a linker: ado-ado)

Row | Binder | pKd
13 | B1 | below the threshold
14 | B2 | below the threshold
15 | B3 | below the threshold

Biological target: T4, DVL3, Q92997
Assay: holdup assay
Set-up: key: below the threshold = too weak to quantify, mostly under pKd 3.1 to 4
Conditions: plain residues with an end cap or a label only (N-terminal biotin on a linker: ado-ado)

Row | Binder | pKd
16 | B1 | below the threshold
17 | B2 | below the threshold
18 | B3 | below the threshold

Biological target: GOPC, Q9HD26
Assay: holdup assay
Set-up: key: below the threshold = too weak to quantify, mostly under pKd 3.1 to 4
Conditions: plain residues with an end cap or a label only (N-terminal biotin on a linker: ado-ado)

Row | Binder | pKd
19 | B1 | below the threshold
20 | B2 | 3.58
21 | B3 | 3.85

Biological target: T5, GRIP1_7, Q9Y3R0
Assay: holdup assay
Set-up: key: below the threshold = too weak to quantify, mostly under pKd 3.1 to 4
Conditions: plain residues with an end cap or a label only (N-terminal biotin on a linker: ado-ado)

Row | Binder | pKd
22 | B1 | below the threshold
23 | B2 | below the threshold
24 | B3 | below the threshold

Biological target: GRIP2_3, Q9C0E4
Sequence (Q9C0E4 238-339): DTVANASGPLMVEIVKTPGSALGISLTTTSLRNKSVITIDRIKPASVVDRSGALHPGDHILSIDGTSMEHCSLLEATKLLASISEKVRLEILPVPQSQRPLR
Assay: holdup assay
Set-up: key: below the threshold = too weak to quantify, mostly under pKd 3.1 to 4
Conditions: plain residues with an end cap or a label only (N-terminal biotin on a linker: ado-ado)

Row | Binder | pKd
25 | B1 | below the threshold
26 | B2 | below the threshold
27 | B3 | below the threshold

Biological target: HTRA2, O43464
Sequence (O43464 355-458): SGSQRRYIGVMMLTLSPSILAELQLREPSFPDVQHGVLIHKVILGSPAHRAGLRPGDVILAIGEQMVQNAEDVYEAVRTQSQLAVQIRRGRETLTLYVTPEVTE
Assay: holdup assay
Set-up: key: below the threshold = too weak to quantify, mostly under pKd 3.1 to 4
Conditions: plain residues with an end cap or a label only (N-terminal biotin on a linker: ado-ado)

Row | Binder | pKd
28 | B1 | below the threshold
29 | B2 | 3.59
30 | B3 | below the threshold

Biological target: T6, HTRA4, P83105
Assay: holdup assay
Set-up: key: below the threshold = too weak to quantify, mostly under pKd 3.1 to 4
Conditions: plain residues with an end cap or a label only (N-terminal biotin on a linker: ado-ado)

Row | Binder | pKd
31 | B1 | below the threshold
32 | B2 | 4.36
33 | B3 | 3.92

Biological target: Inadl_3, Q8NI35
Sequence (Q8NI35 359-469): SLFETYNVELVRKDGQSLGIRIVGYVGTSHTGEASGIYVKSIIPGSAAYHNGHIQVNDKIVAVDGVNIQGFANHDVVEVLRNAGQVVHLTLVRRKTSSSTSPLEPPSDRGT
Assay: holdup assay
Set-up: key: below the threshold = too weak to quantify, mostly under pKd 3.1 to 4
Conditions: plain residues with an end cap or a label only (N-terminal biotin on a linker: ado-ado)

Row | Binder | pKd
34 | B1 | below the threshold
35 | B2 | 3.55
36 | B3 | 3.56

Biological target: LIMK2, P53671
Sequence (P53671 143-248): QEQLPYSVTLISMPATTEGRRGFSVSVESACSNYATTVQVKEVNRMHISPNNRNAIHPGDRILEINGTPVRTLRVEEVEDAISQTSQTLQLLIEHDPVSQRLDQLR
Assay: holdup assay
Set-up: key: below the threshold = too weak to quantify, mostly under pKd 3.1 to 4
Conditions: plain residues with an end cap or a label only (N-terminal biotin on a linker: ado-ado)

Row | Binder | pKd
37 | B1 | below the threshold
38 | B2 | below the threshold
39 | B3 | below the threshold

Biological target: T7, LNX2_2, Q8N448
Assay: holdup assay
Set-up: key: below the threshold = too weak to quantify, mostly under pKd 3.1 to 4
Conditions: plain residues with an end cap or a label only (N-terminal biotin on a linker: ado-ado)

Row | Binder | pKd
40 | B1 | below the threshold
41 | B2 | 5.12
42 | B3 | below the threshold

Biological target: MAST2, Q6P0Q8
Sequence (Q6P0Q8 1099-1202): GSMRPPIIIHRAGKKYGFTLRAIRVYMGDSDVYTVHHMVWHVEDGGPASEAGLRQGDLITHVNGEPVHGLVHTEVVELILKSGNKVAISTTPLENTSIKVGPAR
Assay: holdup assay
Set-up: key: below the threshold = too weak to quantify, mostly under pKd 3.1 to 4
Conditions: plain residues with an end cap or a label only (N-terminal biotin on a linker: ado-ado)

Row | Binder | pKd
43 | B1 | 4.41
44 | B2 | 4.1
45 | B3 | 5.2

Biological target: T8, MPDZ_12, O75970
Assay: holdup assay
Set-up: key: below the threshold = too weak to quantify, mostly under pKd 3.1 to 4
Conditions: plain residues with an end cap or a label only (N-terminal biotin on a linker: ado-ado)

Row | Binder | pKd
46 | B1 | below the threshold
47 | B2 | 3.53
48 | B3 | below the threshold

Biological target: T9, MPP2, Q14168
Assay: holdup assay
Set-up: key: below the threshold = too weak to quantify, mostly under pKd 3.1 to 4
Conditions: plain residues with an end cap or a label only (N-terminal biotin on a linker: ado-ado)

Row | Binder | pKd
49 | B1 | below the threshold
50 | B2 | below the threshold
51 | B3 | below the threshold

Biological target: T10, MPP7, Q5T2T1
Assay: holdup assay
Set-up: key: below the threshold = too weak to quantify, mostly under pKd 3.1 to 4
Conditions: plain residues with an end cap or a label only (N-terminal biotin on a linker: ado-ado)

Row | Binder | pKd
52 | B1 | below the threshold
53 | B2 | below the threshold
54 | B3 | below the threshold

Biological target: T11, NHERF3_3, Q5T2W1
Assay: holdup assay
Set-up: key: below the threshold = too weak to quantify, mostly under pKd 3.1 to 4
Conditions: plain residues with an end cap or a label only (N-terminal biotin on a linker: ado-ado)

Row | Binder | pKd
55 | B1 | below the threshold
56 | B2 | below the threshold
57 | B3 | below the threshold

Biological target: T12, PDZD7_3, Q9H5P4
Assay: holdup assay
Set-up: key: below the threshold = too weak to quantify, mostly under pKd 3.1 to 4
Conditions: plain residues with an end cap or a label only (N-terminal biotin on a linker: ado-ado)

Row | Binder | pKd
58 | B1 | below the threshold
59 | B2 | below the threshold
60 | B3 | 4.12

Biological target: SCRIB_1, Q14160
Sequence (Q14160 718-814): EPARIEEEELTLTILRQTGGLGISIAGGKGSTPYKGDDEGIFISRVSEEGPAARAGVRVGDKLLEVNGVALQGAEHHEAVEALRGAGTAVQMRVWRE
Assay: holdup assay
Set-up: key: below the threshold = too weak to quantify, mostly under pKd 3.1 to 4
Conditions: plain residues with an end cap or a label only (N-terminal biotin on a linker: ado-ado)

Row | Binder | pKd
61 | B1 | below the threshold
62 | B2 | below the threshold
63 | B3 | 5.2

Biological target: T13, SNTG1, Q9NSN8
Assay: holdup assay
Set-up: key: below the threshold = too weak to quantify, mostly under pKd 3.1 to 4
Conditions: plain residues with an end cap or a label only (N-terminal biotin on a linker: ado-ado)

Row | Binder | pKd
64 | B1 | below the threshold
65 | B2 | below the threshold
66 | B3 | 4.95

Biological target: T14, TIAM2, Q8IVF5
Assay: holdup assay
Set-up: key: below the threshold = too weak to quantify, mostly under pKd 3.1 to 4
Conditions: plain residues with an end cap or a label only (N-terminal biotin on a linker: ado-ado)

Row | Binder | pKd
67 | B1 | below the threshold
68 | B2 | below the threshold
69 | B3 | below the threshold

Biological target: TJP1_2, Q07157
Sequence (Q07157 181-274): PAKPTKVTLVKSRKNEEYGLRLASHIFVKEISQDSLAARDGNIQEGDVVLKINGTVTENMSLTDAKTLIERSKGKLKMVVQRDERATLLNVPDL
Assay: holdup assay
Set-up: key: below the threshold = too weak to quantify, mostly under pKd 3.1 to 4
Conditions: plain residues with an end cap or a label only (N-terminal biotin on a linker: ado-ado)

Row | Binder | pKd
70 | B1 | below the threshold
71 | B2 | 3.72
72 | B3 | below the threshold
